According to patent US20230406912A1, “HUMANISED ANTIBODIES AGAINST PATHOGENIC FUNGI” (priority 2020, published 2023):
Numbering of substitutions follows the chain as printed.

B1: H3/K3: humanised recombinant Ab, second approach; VH H3 (SEQ ID NO: 20), VL K3 (SEQ ID NO: 19) (antibody, V domains shown)
VH: QVQLVQSGAEVKKPGASVKVSCKASGYTLSSYWIHWVRQAPGQGLEWIGWILPGSGSTNYAQKFQGKATITADKSTSTAYMELSSLRSEDTAVYYCAREGWYFDVWGQGTLVTVSS
VL: DIVMTQTPLSLSVTPGQPASISCKSSQSLLYSNGNTHLNWYLQRPGQSPQLLIYLVSNRASGVPDRFTGSGSGTDFTLKISRVEAEDVGVYYCVQGTHFPYTFGGGTKVEIK
modifications: VH-H3; VL-K3
B2: H5 K3: humanised mAb combining heavy chain H5 (SEQ ID NO: 22) and light chain K3 (SEQ ID NO: 19) (antibody, V domains shown)
VH: QVQLQQSGAELKKPGASVKISCKASGYTLSSYWLEWVRQRPGQGLEWIGEILPGSGSTNYNEKFKGRATFTADTSTNTAYMELSSLTSEDSAVYYCAREGWYFDVWGQGTTVTVSS
VL: B1 VL
modifications: VH-H5; VL-K3
B3: H1 K1: humanised mAb, first approach CDR-grafting; VH H1 (SEQ ID NO: 16), VL K1 (SEQ ID NO: 15) (antibody, V domains shown)
VH: QVQLVQSGAEVKKPGASVKVSCKASGYTLSSYWMHWVRQAPGQGLEWMGIILPGSGSTSYAQKFQGRVTMTRDTSTSTVYMELSSLRSEDTAVYYCAREGWYFDVWGAGTTVTVSS
VL: DVVMTQSPLSLPVTLGQPASISCRSSQSLLYSNGNTHLNWFQQRPGQSPRRLIYLVSNRDSGVPDRFSGSGSGTDFTLKISRVEAEDVGVYYCVQGTHFPYTFGGGTKLEIK
modifications: VH-H1; VL-K1
B4: H6 K1: humanised mAb combining heavy chain H6 (SEQ ID NO: 24) and light chain K1 (SEQ ID NO: 15) (antibody, V domains shown)
VH: B2 VH with L34I, E35H
VL: B3 VL
modifications: VH-H6; VL-K1
B5: H3 K1: humanised mAb combining heavy chain H3 (SEQ ID NO: 20) and light chain K1 (SEQ ID NO: 15) (antibody, V domains shown)
VH: B1 VH
VL: B3 VL
modifications: VH-H3; VL-K1
B6: H5 K5: humanised mAb, third approach (Kabat); VH H5 (SEQ ID NO: 22), VL K5 (SEQ ID NO: 21) (antibody, V domains shown)
VH: B2 VH
VL: B3 VL with V2I, R24K, F41Y, N58K, R59L
modifications: VH-H5; VL-K5
B7: H5 K7: humanised mAb combining heavy chain H5 (SEQ ID NO: 22) and light chain K7 (SEQ ID NO: 25) (antibody, V domains shown)
VH: B2 VH
VL: B3 VL with V2I, R24K, F41Y, Q42L, R50K, N58K, R59L
modifications: VH-H5; VL-K7

Key:
C. auris [1] = assay: EUCAST antifungal MIC assay, drug alone and combined with hmAb 2G8; assay type: cell-based; conditions: Candidozyma auris; 48 hours, drug alone; read-out: MIC50
Procedure: To evaluate the susceptibility of C. auris to caspofungin, amphotericin B and their combination with hmAb 2G8, we followed the EUCAST antifungal MIC method (EUCAST E.DEF. 7.3). Antifungal drugs were purchased from Sigma-Aldrich.
The caspofungin and amphotericin B range concentrations analysed were reported in EUCAST document. Those concentrations were tested alone and in combination with 0.25, 2.5, 25 and 250 μg/ml of humanised antibody.
The plates microdilution and the yeast inoculum were prepared as reported in EUCAST document. The wells with 100 μl of 2X final antifungal drugs concentration in RPMI 2% G medium were inoculated with 100 μl (1-5×10^5 CFU/ml) of yeast suspension of C. auris. The monoclonal antibody was added to the samples of yeast suspension to test the combination drug-antibody. The plates were incubated at 37° C. for 24 and 48 hours and read after incubation at 405 nm. The assays were performed in triplicate.
As reported in EUCAST, echinocandins' MIC50 is the lowest drug concentration giving inhibition of≥50% of that of the drug-free control (dotted line). For amphotericin B, MIC50 is the same as for echinocandins while MIC90 is considered as the lowest concentration giving a growth inhibition of≥90% of that of the drug-free control (dotted bold line). […] At 48 hours (D), amphotericin B alone has its MIC50 and 90 at 1 μg/ml.

C. auris [2] = assay: Time-kill curve, drug alone and combined with hmAb 2G8; assay type: cell-based
Text: To support and deepen the data coming from MIC assays, a time-kill curve was elaborated to evaluate how the hmAb 2G8 combined with caspofungin or amphotericin B could improve their basal activity on C. auris.

C. auris [3] = conditions: different C. auris strains, literature; cited from earlier work
[4] = ELISA assay on laminarin-coated plates; assay type: binding; conditions: for activity in ELISA test: recombinant antibody, laminarin-coated plates; for Abs 405 nm: ELISA of supernatants of humanised mAbs
Procedure: The activity of the purified antibody was then tested by ELISA assay. 96-well plates were coated with 50 μg/ml Laminarin (Sigma-Aldrich, L9634) in 0.05 M carbonate buffer pH 9.6 overnight at 4° C. Nonspecific interactions were blocked with 100 μL/well blocking solution, 3% (w/v) BSA in PBS-Tween 20 (8 g/L NaCl, 0.2 g/L KH2PO4, 2.9 g/L Na2HPO4·12 H2O, 0.2 g/L KCI, 0.05% (v/v) Tween 20, pH 7.4) at 37° C. for 1 h. The plates were then incubated with decreasing concentrations of hmAb 2G8_first approach (comparative purpose) (from 3.12 μg/ml to 0.003 μg/ml, each concentration was tested in triplicate) in blocking solution for 2 h at 37° C. At the same temperature and for the same time, 100 μL Goat anti-human-HRP diluted 1:1000 in blocking solution was poured in each well. After every single passage the plates were washed 5 times with PBS-Tween 20. To reveal the binding, 100 μl of 5 mg-ABTS tablet (Roche Diagnostics) dissolved in 12 ml of sodium citrate (0.05 M, pH 3) and supplemented with 1:1000 dilution hydrogen peroxide (Carlo Erba) was added and after 15, 30, 45 and 60 min the absorbance at 405 nm was measured. For the whole measuring time the plates were left in the dark. IC50 analysis of ELISA test was performed with Prism. The TEST was performed in triplicate.
The surnatants collected from the obtained humanised mAb were tested in ELISA test.
Four supernatants from hmAb according to the invention (H5/K3; H5/K1; H5/K7; H5/K5) were purified to confirm the data. 8 scalar dilutions, starting from 5 μg/ml, were tested.
The purified humanised mAb 2G8 H5/K1 was then tested in an ELISA assay using laminarin as a target.

Molecule | activity in ELISA test [4] | Abs 405 nm [4] | further results
CC[C@H](C)C[C@H](C)CCCCCCCCC(=O)N[C@H]1C[C@@H](O)[C@@H](NCCN)NC(=O)[C@@H]2[C@@H](O)CCN2C(=O)[C@H]([C@H](O)CCN)NC(=O)[C@H]([C@H](O)[C@@H](O)c2ccc(O)cc2)NC(=O)[C@@H]2C[C@@H](O)CN2C(=O)[C@H]([C@@H](C)O)NC1=O [caspofungin] | – | – | MIC50 (C. auris [1]): 0.25 µg/mL; fungistatic effect, log (time-kill curve) (C. auris [2]; CAS 0.125 μg/ml, 24 h): −1.88; fungistatic effect, log (time-kill curve) (C. auris [2]; CAS 0.125 μg/ml, 48 h): −2.10; fungistatic effect, log (time-kill curve) (C. auris [2]; CAS 0.25 μg/ml, 24 h, combination with 250 μg/ml hmAb 2G8 H5K1): −1.11; fungistatic effect, log (time-kill curve) (C. auris [2]; CAS 0.25 μg/ml, 48 h, combination with 250 μg/ml hmAb 2G8 H5K1): −1.71
C[C@@H](c1ncncc1F)[C@](O)(Cn1cncn1)c1ccc(F)cc1F [voriconazole] | – | – | MIC (C. auris [3]): about 16 mg/L
B1 | not active | – | –
B2 | – | 2.47 | –
B3 | not active | 0.35 | –
B4 | – | 0.27 | –
B5 | – | 0.4 | –
B6 | showed some activity | 1.61 | activity / affinity compared with murine 2G8 ([4]; ELISA): lower than the activity observed for the murine 2G8
B7 | – | 0.82 | –
